The values below come from paper PMC4156298, “Characterization of the PH1704 Protease from Pyrococcus horikoshii OT3 and the Critical Functions of Tyr120” (PLoS ONE, 2014).

Positions count from the first letter of the chain named. Numbers in names are those of the source.

B1: recombinant PH1704 protease from Pyrococcus horikoshii OT3 (enzyme, UniProt O59413 1-166, looked up)
chain: MKVLFLTANEFEDVELIYPYHRLKEEGHEVYIASFERGTITGKHGYSVKVDLTFDKVNPEEFDALVLPGGRAPERVRLNEKAVSIARKMFSEGKPVASICHGPQILISAGVLRGRKGTSYPGIKDDMINAGVEWVDAEVVVDGNWVSSRVPADLYAWMREFVKLLK
notes: PH1704 protease, Pyrococcus horikoshii OT3, gene amplified from genomic DNA with primers at the start and at the stop codon, cloned NdeI/BamHI into pET-15b; The tag is known from detection with an anti-His tag antibody; also called WT; source: E. coli BL21 (DE3), purified (heat incubation at 80°C, Sephacryl S-200); copies: 12
B2: PH1704 protease (Pyrococcus horikoshii OT3; Y120W) (protein)
chain: B1 chain with Y120W
notes: full-length gene in pET-15b (NdeI/BamHI), His-tag (detected by anti-His western blot), E. coli BL21(DE3); heat step and Sephacryl S-200
B3: PH1704 protease (Pyrococcus horikoshii OT3; Y120S) (protein)
chain: B1 chain with Y120S
notes: as for B2
B4: PH1704 protease (Pyrococcus horikoshii OT3; Y120P) (protein)
chain: B1 chain with Y120P
notes: as for B2

Substrate in the first data set: Cc1cc(=O)oc2cc(NC(=O)[C@@H](N)CCCNC(=N)N)ccc12
Description: fluorescence of released amc, Hill equation fit. The format is biochemical, Pyrococcus horikoshii. Conditions: 50 mM sodium phosphate pH 7.5, 358 K, 60 min, aminopeptidase, 85.0 °C. The text has this: fluorescence of released amc, Hill equation fit on PH1704 protease
Regarding B1, the Michaelis-Menten constant (Km) was 12 ± 0.65 µM, the kcat was 0.0108 ± 0.000833 s⁻¹ and the kcat/Km was 867 ± 133 M⁻¹ s⁻¹.

For the protein B2, the Michaelis constant (Km) is 20.6 ± 0.77 µM, the kcat was 0.02 ± 0.00117 s⁻¹ and the kcat/Km stood at 1100 ± 83.3 M⁻¹ s⁻¹.

As for B3, the Km is 9.0 ± 0.43 µM, the catalytic constant (kcat) worked out at 0.00245 ± 0.000167 s⁻¹ and the kcat/Km was found to be 400 ± 66.7 M⁻¹ s⁻¹.

Consider B4, for which the Michaelis-Menten constant (Km) was determined as 11.3 ± 0.59 µM, the kcat was determined as 0.0728 ± 0.002 s⁻¹ and the kcat/Km was found to be 6630 ± 417 M⁻¹ s⁻¹.

Another data set deals with the molecule itself. Description: native gel or EMSA; non-denaturing PAGE (10% resolving gel, 5% stacking gel), Coomassie stain and anti-His western blot; size read against a high molecular weight protein marker.
Conditions: not given
Regarding B1, the “stoichiometry N” value came to 12.
